{
  "source": "paper PMC12499391",
  "experiment_in_all_cases": "ELISA; dose-response of S protein binding to ACE2 and C-type lectins; which partner was coated and how binding was detected is not given for this experiment",
  "key": {"[1]": {"target": "Recombinant human CLEC10A (human) (UniProt Q8IUN9)", "sequence (Q8IUN9 whole entry)": "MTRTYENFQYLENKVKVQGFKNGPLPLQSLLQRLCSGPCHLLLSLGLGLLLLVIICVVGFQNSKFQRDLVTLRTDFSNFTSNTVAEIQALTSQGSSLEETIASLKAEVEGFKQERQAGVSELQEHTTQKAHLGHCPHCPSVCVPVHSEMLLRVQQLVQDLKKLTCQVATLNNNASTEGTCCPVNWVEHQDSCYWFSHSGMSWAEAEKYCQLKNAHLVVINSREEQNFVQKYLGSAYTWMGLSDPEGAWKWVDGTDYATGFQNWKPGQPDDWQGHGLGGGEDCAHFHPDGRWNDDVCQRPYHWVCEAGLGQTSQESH"}, "[2]": {"target": "Recombinant human CLEC2 (human) (UniProt Q9P126)", "sequence (Q9P126 whole entry)": "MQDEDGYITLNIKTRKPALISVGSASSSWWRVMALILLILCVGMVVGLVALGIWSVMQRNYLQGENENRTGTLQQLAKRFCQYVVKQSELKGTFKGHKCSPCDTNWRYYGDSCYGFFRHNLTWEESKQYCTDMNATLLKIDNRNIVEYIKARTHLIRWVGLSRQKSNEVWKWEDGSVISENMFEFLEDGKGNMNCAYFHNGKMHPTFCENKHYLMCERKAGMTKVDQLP"}, "[3]": {"target": "Recombinant human CLEC5A (human) (UniProt Q9NY25)", "sequence (Q9NY25 whole entry)": "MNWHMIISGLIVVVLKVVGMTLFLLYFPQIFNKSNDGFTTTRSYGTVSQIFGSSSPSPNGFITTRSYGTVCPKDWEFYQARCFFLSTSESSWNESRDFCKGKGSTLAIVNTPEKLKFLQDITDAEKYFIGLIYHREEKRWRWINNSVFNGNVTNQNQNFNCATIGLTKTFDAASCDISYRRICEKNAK"}, "[4]": {"target": "Recombinant human DC‐SIGN (human) (UniProt Q9NNX6)", "sequence (Q9NNX6 whole entry)": "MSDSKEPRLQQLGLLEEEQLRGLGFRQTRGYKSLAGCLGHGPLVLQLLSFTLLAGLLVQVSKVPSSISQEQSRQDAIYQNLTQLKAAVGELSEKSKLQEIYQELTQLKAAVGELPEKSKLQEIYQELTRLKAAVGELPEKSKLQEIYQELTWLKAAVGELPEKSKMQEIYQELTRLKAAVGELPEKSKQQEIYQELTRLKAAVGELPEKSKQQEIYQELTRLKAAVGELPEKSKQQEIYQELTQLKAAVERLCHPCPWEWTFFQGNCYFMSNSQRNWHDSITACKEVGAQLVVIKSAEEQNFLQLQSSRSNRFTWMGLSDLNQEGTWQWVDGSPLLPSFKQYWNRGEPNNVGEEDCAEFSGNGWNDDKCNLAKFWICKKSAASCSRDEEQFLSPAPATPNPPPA"}, "[5]": {"target": "Recombinant human L‐SIGN (human) (UniProt Q9H2X3)", "sequence (Q9H2X3 whole entry)": "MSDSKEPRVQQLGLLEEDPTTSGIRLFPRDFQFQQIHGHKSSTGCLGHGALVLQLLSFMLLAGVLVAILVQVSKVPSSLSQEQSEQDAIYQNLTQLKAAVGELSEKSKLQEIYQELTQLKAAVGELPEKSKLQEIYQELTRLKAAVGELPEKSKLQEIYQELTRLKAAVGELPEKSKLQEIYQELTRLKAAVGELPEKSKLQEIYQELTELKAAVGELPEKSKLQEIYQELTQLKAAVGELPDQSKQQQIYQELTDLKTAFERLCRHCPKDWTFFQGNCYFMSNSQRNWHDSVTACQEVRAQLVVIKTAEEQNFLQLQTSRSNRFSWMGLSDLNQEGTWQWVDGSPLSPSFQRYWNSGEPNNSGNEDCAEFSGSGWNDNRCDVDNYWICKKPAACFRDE"}},
  "note": "pEC50: −log10 of the molar value.",
  "data": [
    {"substance": "SARS‐CoV‐2 spike (S) protein (from UniProt P0DTC2 14-1213) (natural protein)", "values": [
      {"measurement": "pEC50", "setting": "[1]", "result": 8.01},
      {"measurement": "pEC50", "setting": "[2]", "result": 8.11},
      {"measurement": "pEC50", "setting": "[3]", "result": 8.19},
      {"measurement": "pEC50", "setting": "[4]", "result": 8.34},
      {"measurement": "pEC50", "setting": "[5]", "result": 8.29}
    ]}
  ]
}
